Measurements published in publication PMC10803776 (2024).

Target: Mycobacterium tuberculosis DnaK, wild type, full length (Mycobacterium tuberculosis, UniProt P9WMJ9 1-625)
Assay: ITC

B1: Mycobacterium tuberculosis GrpE, wild type, full length (natural protein)
chain: MTDGNQKPDGNSGEQVTVTDKRRIDPETGEVRHVPPGDMPGGTAAADAAHTEDKVAELTADLQRVQADFANYRKRALRDQQAAADRAKASVVSQLLGVLDDLERARKHGDLESGPLKSVADKLDSALTGLGLVAFGAEGEDFDPVLHEAVQHEGDGGQGSKPVIGTVMRQGYQLGEQVLRHALVGVVDTVVVDAAELESVDDGTAVADTAENDQADQGNSADTSGEQAESEPSGS
- Kd: 0.36 µM
